{
  "source": "the supplement of paper PMC10567573",
  "parents": {"B1": {"name": "TOR1AIP2 (parent)", "chain": "AGQEGEDTLRRRLLAPEAGSHPQQ"}},
  "data": [
    {"variants_of": "B1", "test": "protein stability index of a GFP-peptide fusion (GPS, HEK-293T) (PSI 1-6); higher = more stable", "settings": "c terminus: a fixed tail appended", "values": [
      {"variant": "AGQEGEDTLRRRLLAAEAGSHPQQ", "note": "[P16A]", "protein stability index": 5.48},
      {"variant": "AGQEGEDTLRRRLLAYEAGSHPQQ", "note": "[P16Y]", "protein stability index": 4.86},
      {"variant": "AGQEGEDTLRRRLLAGEAGSHPQQ", "note": "[P16G]", "protein stability index": 5.51},
      {"variant": "AGQEGEDTLRRRLLAVEAGSHPQQ", "note": "[P16V]", "protein stability index": 4.63},
      {"variant": "AGQEGEDTLRRRLLACEAGSHPQQ", "note": "[P16C]", "protein stability index": 4.47},
      {"variant": "AGQEGEDTLRRRLLAMEAGSHPQQ", "note": "[P16M]", "protein stability index": 4.81},
      {"variant": "AGQEGEDTLRRRLLAIEAGSHPQQ", "note": "[P16I]", "protein stability index": 5.07},
      {"variant": "AGQEGEDTLRRRLLAFEAGSHPQQ", "note": "[P16F]", "protein stability index": 4.52},
      {"variant": "AGQEGEDTLRRRLLASEAGSHPQQ", "note": "[P16S]", "protein stability index": 5.43},
      {"variant": "AGQEGEDTLRRRLLAHEAGSHPQQ", "note": "[P16H]", "protein stability index": 4.5},
      {"variant": "AGQEGEDTLRRRLLANEAGSHPQQ", "note": "[P16N]", "protein stability index": 5.24},
      {"variant": "AGQEGEDTLRRRLLAREAGSHPQQ", "note": "[P16R]", "protein stability index": 4.7},
      {"variant": "AGQEGEDTLRRRLLAEEAGSHPQQ", "note": "[P16E]", "protein stability index": 5.45},
      {"variant": "AGQEGEDTLRRRLLALEAGSHPQQ", "note": "[P16L]", "protein stability index": 5.32},
      {"variant": "AGQEGEDTLRRRLLATEAGSHPQQ", "note": "[P16T]", "protein stability index": 4.45},
      {"variant": "AGQEGEDTLRRRLLADEAGSHPQQ", "note": "[P16D]", "protein stability index": 5.74},
      {"variant": "AGQEGEDTLRRRLLAQEAGSHPQQ", "note": "[P16Q]", "protein stability index": 5.21},
      {"variant": "AGQEGEDTLRRRLLAPEAGSHNQQ", "note": "[P22N]", "protein stability index": 3.24},
      {"variant": "AGQEGEDTLRRRLLAPEAGSHFQQ", "note": "[P22F]", "protein stability index": 2.31},
      {"variant": "AGQEGEDTLRRRLLAPEAGSHDQQ", "note": "[P22D]", "protein stability index": 2.6},
      {"variant": "AGQEGEDTLRRRLLAPEAGSHQQQ", "note": "[P22Q]", "protein stability index": 2.34},
      {"variant": "AGQEGEDTLRRRLLAPEAGSHVQQ", "note": "[P22V]", "protein stability index": 2.4},
      {"variant": "AGQEGEDTLRRRLLAPEAGSHHQQ", "note": "[P22H]", "protein stability index": 1.65},
      {"variant": "AGQEGEDTLRRRLLAPEAGSHEQQ", "note": "[P22E]", "protein stability index": 2.66},
      {"variant": "AGQEGEDTLRRRLLAPEAGSHWQQ", "note": "[P22W]", "protein stability index": 1.94},
      {"variant": "AGQEGEDTLRRRLLAPEAGSHYQQ", "note": "[P22Y]", "protein stability index": 1.52},
      {"variant": "AGQEGEDTLRRRLLAPEAGSHLQQ", "note": "[P22L]", "protein stability index": 2.14},
      {"variant": "AGQEGEDTLRRRLLAPEAGSHRQQ", "note": "[P22R]", "protein stability index": 2.04},
      {"variant": "AGQEGEDTLRRRLLAPEAGSHKQQ", "note": "[P22K]", "protein stability index": 2.44},
      {"variant": "AGQEGEDTLRRRLLAPEAGSHMQQ", "note": "[P22M]", "protein stability index": 2.67},
      {"variant": "AGQEGEDTLRRRLLAPEAGSHAQQ", "note": "[P22A]", "protein stability index": 2.58},
      {"variant": "AGQEGEDTLRRRLLAPEAGSHCQQ", "note": "[P22C]", "protein stability index": 2.43},
      {"variant": "AGQEGEDTLRRRLLAPEAGSHSQQ", "note": "[P22S]", "protein stability index": 1.81},
      {"variant": "AGQEGEDTLRRRLLAPEAGSHIQQ", "note": "[P22I]", "protein stability index": 2.56},
      {"variant": "AGQEGEDTLRRRLLAPEAGSHTQQ", "note": "[P22T]", "protein stability index": 1.87},
      {"variant": "AGQEGEDTLRRRLLAPEAGSHGQQ", "note": "[P22G]", "protein stability index": 2.44},
      {"variant": "AGQEGEDTLRRRLLAPEAGSLPQQ", "note": "[H21L]", "protein stability index": 2.27},
      {"variant": "AGQEGEDTLRRRLLAPEAGSMPQQ", "note": "[H21M]", "protein stability index": 1.88},
      {"variant": "AGQEGEDTLRRRLLAPEAGSNPQQ", "note": "[H21N]", "protein stability index": 2.69},
      {"variant": "AGQEGEDTLRRRLLAPEAGSVPQQ", "note": "[H21V]", "protein stability index": 2.1},
      {"variant": "AGQEGEDTLRRRLLAPEAGSKPQQ", "note": "[H21K]", "protein stability index": 2.58},
      {"variant": "AGQEGEDTLRRRLLAPEAGSSPQQ", "note": "[H21S]", "protein stability index": 2.76},
      {"variant": "AGQEGEDTLRRRLLAPEAGSFPQQ", "note": "[H21F]", "protein stability index": 2.02},
      {"variant": "AGQEGEDTLRRRLLAPEAGSYPQQ", "note": "[H21Y]", "protein stability index": 1.85},
      {"variant": "AGQEGEDTLRRRLLAPEAGSQPQQ", "note": "[H21Q]", "protein stability index": 2.7},
      {"variant": "AGQEGEDTLRRRLLAPEAGSDPQQ", "note": "[H21D]", "protein stability index": 3.73},
      {"variant": "AGQEGEDTLRRRLLAPEAGSEPQQ", "note": "[H21E]", "protein stability index": 1.73},
      {"variant": "AGQEGEDTLRRRLLAPEAGSGPQQ", "note": "[H21G]", "protein stability index": 2.47},
      {"variant": "AGQEGEDTLRRRLLAPEAGSTPQQ", "note": "[H21T]", "protein stability index": 2.26},
      {"variant": "AGQEGEDTLRRRLLAPEAGSRPQQ", "note": "[H21R]", "protein stability index": 2.14},
      {"variant": "AGQEGEDTLRRRLLAPEAGSWPQQ", "note": "[H21W]", "protein stability index": 2.6},
      {"variant": "AGQEGEDTLRRRLLAPEAGSCPQQ", "note": "[H21C]", "protein stability index": 2.69},
      {"variant": "AGQEGEDTLRRRLLAPEAGSAPQQ", "note": "[H21A]", "protein stability index": 2.53},
      {"variant": "AGQEGEDTLRRRLLAPEAGSPPQQ", "note": "[H21P]", "protein stability index": 2.82},
      {"variant": "AGQEGEDTLRRRLLAPEAGSIPQQ", "note": "[H21I]", "protein stability index": 2.96},
      {"variant": "AGQEGEDTLRRRLLAPEAGSHPQE", "note": "[Q24E]", "protein stability index": 2.52},
      {"variant": "AGQEGEDTLRRRLLAPEAGSHPQD", "note": "[Q24D]", "protein stability index": 2.38},
      {"variant": "AGQEGEDTLRRRLLAPEAGSHPQC", "note": "[Q24C]", "protein stability index": 1.85},
      {"variant": "AGQEGEDTLRRRLLAPEAGSHPQF", "note": "[Q24F]", "protein stability index": 2.37},
      {"variant": "AGQEGEDTLRRRLQAPEAGSHPQQ", "note": "[L14Q]", "protein stability index": 5.68},
      {"variant": "AGQEGEDTLRRRLWAPEAGSHPQQ", "note": "[L14W]", "protein stability index": 4.69},
      {"variant": "AGQEGEDTLRRRLKAPEAGSHPQQ", "note": "[L14K]", "protein stability index": 5.51},
      {"variant": "AGQEGEDTLRRRLNAPEAGSHPQQ", "note": "[L14N]", "protein stability index": 5.56},
      {"variant": "AGQEGEDTLRRRLIAPEAGSHPQQ", "note": "[L14I]", "protein stability index": 5.06},
      {"variant": "AGQEGEDTLRRRLTAPEAGSHPQQ", "note": "[L14T]", "protein stability index": 5.58},
      {"variant": "AGQEGEDTLRRRLSAPEAGSHPQQ", "note": "[L14S]", "protein stability index": 5.63},
      {"variant": "AGQEGEDTLRRRLYAPEAGSHPQQ", "note": "[L14Y]", "protein stability index": 4.5},
      {"variant": "AGQEGEDTLRRRLEAPEAGSHPQQ", "note": "[L14E]", "protein stability index": 5.37},
      {"variant": "AGQEGEDTLRRRLGAPEAGSHPQQ", "note": "[L14G]", "protein stability index": 5.21},
      {"variant": "AGQEGEDTLRRRLPAPEAGSHPQQ", "note": "[L14P]", "protein stability index": 5.93},
      {"variant": "AGQEGEDTLRRRLRAPEAGSHPQQ", "note": "[L14R]", "protein stability index": 5.17},
      {"variant": "AGQEGEDTLRRRLHAPEAGSHPQQ", "note": "[L14H]", "protein stability index": 5.5},
      {"variant": "AGQEGEDTLRRRLVAPEAGSHPQQ", "note": "[L14V]", "protein stability index": 5.37},
      {"variant": "AGQEGEDTLRRRLMAPEAGSHPQQ", "note": "[L14M]", "protein stability index": 4.6},
      {"variant": "AGQEGEDTLRRRLFAPEAGSHPQQ", "note": "[L14F]", "protein stability index": 4.25},
      {"variant": "AGQEGEDTLRRRLLAPECGSHPQQ", "note": "[A18C]", "protein stability index": 2.48},
      {"variant": "AGQEGEDTLRRRLLAPEHGSHPQQ", "note": "[A18H]", "protein stability index": 3.03},
      {"variant": "AGQEGEDTLRRRLLAPEQGSHPQQ", "note": "[A18Q]", "protein stability index": 3.35},
      {"variant": "AGQEGEDTLRRRLLAPEKGSHPQQ", "note": "[A18K]", "protein stability index": 3.5},
      {"variant": "AGQEGEDTLRRRLLAPEGGSHPQQ", "note": "[A18G]", "protein stability index": 3.92},
      {"variant": "AGQEGEDTLRRRLLAPELGSHPQQ", "note": "[A18L]", "protein stability index": 1.57},
      {"variant": "AGQEGEDTLRRRLLAPEPGSHPQQ", "note": "[A18P]", "protein stability index": 4.77},
      {"variant": "AGQEGEDTLRRRLLAPETGSHPQQ", "note": "[A18T]", "protein stability index": 3.11},
      {"variant": "AGQEGEDTLRRRLLAPEFGSHPQQ", "note": "[A18F]", "protein stability index": 2.16},
      {"variant": "AGQEGEDTLRRRLLAPEDGSHPQQ", "note": "[A18D]", "protein stability index": 3.62},
      {"variant": "AGQEGEDTLRRRLLAPEVGSHPQQ", "note": "[A18V]", "protein stability index": 2.75},
      {"variant": "AGQEGEDTLRRRLLAPESGSHPQQ", "note": "[A18S]", "protein stability index": 2.35},
      {"variant": "AGQEGEDTLRRRLLAPEIGSHPQQ", "note": "[A18I]", "protein stability index": 1.9},
      {"variant": "AGQEGEDTLRRRLLAPEMGSHPQQ", "note": "[A18M]", "protein stability index": 2.08},
      {"variant": "AGQEGEDTLRRRLLAPENGSHPQQ", "note": "[A18N]", "protein stability index": 4.09},
      {"variant": "AGQEGEDTLRRRLLAPEYGSHPQQ", "note": "[A18Y]", "protein stability index": 1.43},
      {"variant": "AGQEGEDTLRRRLLAPEEGSHPQQ", "note": "[A18E]", "protein stability index": 3.46},
      {"variant": "AGQEGEDTLRRRLLAPERGSHPQQ", "note": "[A18R]", "protein stability index": 2.87},
      {"variant": "AGQEGEDTLRRRLLAPEWGSHPQQ", "note": "[A18W]", "protein stability index": 2.21}
    ]}
  ]
}
